Experimental data published in article PMC7308080, “The His-Gly motif of acid-sensing ion channels resides in a reentrant ‘loop’ implicated in gating and ion selectivity” (eLife, 2020).

Target: the molecule itself
Test: cryo-EM structure; single-particle cryo-EM of purified cASIC1-SMA at ~1 mg/ml, pH adjusted to 7.0 with MES pH 6.0, TBS with 1 mM DTT; low pH desensitized state; C3 symmetry in the final refinement

B1: full-length chicken acid-sensing ion channel 1 (cASIC1) solubilized in styrene maleic acid copolymer (natural protein, Gallus gallus (chicken), UniProt Q1XA76 1-527, looked up)
chain: MMDLKVDEEEVDSGQPVSIQAFASSSTLHGISHIFSYERLSLKRVVWALCFMGSLALLALVCTNRIQYYFLYPHVTKLDEVAATRLTFPAVTFCNLNEFRFSRVTKNDLYHAGELLALLNNRYEIPDTQTADEKQLEILQDKANFRNFKPKPFNMLEFYDRAGHDIREMLLSCFFRGEQCSPEDFKVVFTRYGKCYTFNAGQDGKPRLITMKGGTGNGLEIMLDIQQDEYLPVWGETDETSFEAGIKVQIHSQDEPPLIDQLGFGVAPGFQTFVSCQEQRLIYLPPPWGDCKATTGDSEFYDTYSITACRIDCETRYLVENCNCRMVHMPGDAPYCTPEQYKECADPALDFLVEKDNEYCVCEMPCNVTRYGKELSMVKIPSKASAKYLAKKYNKSEQYIGENILVLDIFFEALNYETIEQKKAYEVAGLLGDIGGQMGLFIGASILTVLELFDYAYEVIKHRLCRRGKCRKNHKRNNTDKGVALSMDDVKRHNPCESLRGHPAGMTYAANILPHHPARGTFEDFTC
notes: the final models contain residues 17-462; Homotrimer in SMA copolymer with endogenous lipids; Expression is 'as previously described (Yoder et al., 2018a)'; also called cASIC1-SMA; SMA-cASIC1a
- stoichiometry N: 3
